B2: M. jannaschii Adriase S1A mutant with C-terminal His-tag (enzyme)
chain: ALIICYYGKNGAVIGGDRRQIFFRGSEENRKILEEKLYSGEIKSEEELYKLAEKLNIKIIIEDDREKVRKISDSVVCGEVRSLGIDAKRRRVYATKGKCAIVDILNDTVTNQTIKEGFGIVVLGNRFLKKKAEEELKRTAKLFPMMPIQQIEDAIKEIFEKLKWHPTVSKEYDIYSVNKYEKNFEEVIKKDIESLFKYREQLRKQLIDFGKVMSIVNKIVKNGEIGVIKDGKLHLYDDYIAIDKIDPNPKVFKVVDVEGNFKDGDIVVIENGDMKIKGTNEKVTTKYIIIHKGSHHHHHH
notes: The entry is the S1A mutant itself
B3: (10)KDPGA(10) peptide, M. jannaschii MtrA-derived, C-terminal FITC (peptide)
peptide: ITQAIKECLSKDPGAIDEDPFIIEL-{K(FITC)}
B4: (0)KDPGA(10) peptide, M. jannaschii MtrA-derived, C-terminal FITC (peptide)
peptide: KDPGAIDEDPFIIEL-{K(FITC)}
notes: Synthetic peptide (Genscript)
B6: M. jannaschii MtrA^Δ194-245 (enzyme)
chain: MHHHHHHGSMVMSMANKREPAPGWPIVSGEYVVGNPESCVGVVTLGSHGLEQACIDAGAAIAGPCHTENLGIEKVVANYISNPNIRFMILCGSEVQGHITGQCFKALWENGIGDDGGIIGAKGAIPFLENVNKEAVERFRRQIVEVVDLIDCEDIGKITQAIKECLSKDPGAIDEDPFIIELEGGKGGGEEEEGVIKPITPE
notes: For MST it was labelled with NT-647-NHS; also called MJ_0851
B7: (5)KDPGA(10) peptide, M. jannaschii MtrA-derived, C-terminal FITC (peptide)
peptide: KECLSKDPGAIDEDPFIIEL-{K(FITC)}
notes: Synthetic peptide (Genscript); also called (5)KDPGA(10F)
B8: (15)KDPGA(10) peptide, M. jannaschii MtrA-derived, N-terminal FITC-Ahx (peptide)
peptide: {FITC′-Ahx}-EDIGKITQAIKECLSKDPGAIDEDPFIIEL
notes: Synthetic peptide (Genscript); also called (F15)KDPGA(10)

Primed or numbered codes have the meaning given here. Ends that are not written are not given here. FITC′ = fluorescein isothiocyanate label; Ahx = NCCCCCC(=O)O

Test [1] addresses T1, BSA (UniProt P02769 25-607).
T1 construct: also called control protein BSA
Kind of test: pulldown on Ni-NTA beads with His6-tagged Adriase, SDS-PAGE of flow-through, washes and eluate.

Test [2] has as its target T2, M. mazei Ub-(5)KDPGA(10) with N-terminal His-tag.
T2 chain: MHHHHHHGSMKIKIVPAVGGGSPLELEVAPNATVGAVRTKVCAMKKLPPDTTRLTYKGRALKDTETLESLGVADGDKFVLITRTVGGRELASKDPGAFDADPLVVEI
Kind of test: SDS-PAGE time course of Adriase with Ub-(5)KDPGA(10), band of the covalent conjugate.

The target in test [3] is B3. Kind of test: microscale thermophoresis (MST), fitted curve, peptide (10)KDPGA(10). (In general: MST reads how a fluorescent partner responds to local heating, with and without ligand.)
The target of test [4] is T3, M. jannaschii MtrA^Δ174-245 with N-terminal His6-tag (Methanocaldococcus jannaschii, UniProt Q58261 1-169).
T3 sequence: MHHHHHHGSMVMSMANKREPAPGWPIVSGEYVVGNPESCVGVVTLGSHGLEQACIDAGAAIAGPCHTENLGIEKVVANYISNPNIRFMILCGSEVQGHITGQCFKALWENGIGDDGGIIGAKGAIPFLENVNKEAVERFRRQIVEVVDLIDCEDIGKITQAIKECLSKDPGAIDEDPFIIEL
Kind of test: microscale thermophoresis (MST), fitted curve, MtrA^Δ174-245.

The target of test [5] is B7. The test is described as follows: microscale thermophoresis (MST), fitted curve, peptide (5)KDPGA(10).
For test [6], the target named is B8. Kind of test: microscale thermophoresis (MST), fitted curve, peptide (15)KDPGA(10).
Test [7] has as its target B6. The test is described as follows: microscale thermophoresis (MST), fitted curve.
In test [8] the target is B4. Kind of test: microscale thermophoresis (MST), fitted curve, peptide (0)KDPGA(10).
For test [9], the target named is B2. Kind of test: microscale thermophoresis (MST); table row (10)KDPGA(10).
In test [10] the target is B2. The test is described as follows: microscale thermophoresis (MST); table row (0)KDPGA(10).
In test [11] the target is T4, M. jannaschii Adriase with C-terminal His-tag (Methanocaldococcus jannaschii, UniProt Q57968 2-293).
T4 construct: Active enzyme; also called unmodified Adriase; MJ_0548
T4 sequence: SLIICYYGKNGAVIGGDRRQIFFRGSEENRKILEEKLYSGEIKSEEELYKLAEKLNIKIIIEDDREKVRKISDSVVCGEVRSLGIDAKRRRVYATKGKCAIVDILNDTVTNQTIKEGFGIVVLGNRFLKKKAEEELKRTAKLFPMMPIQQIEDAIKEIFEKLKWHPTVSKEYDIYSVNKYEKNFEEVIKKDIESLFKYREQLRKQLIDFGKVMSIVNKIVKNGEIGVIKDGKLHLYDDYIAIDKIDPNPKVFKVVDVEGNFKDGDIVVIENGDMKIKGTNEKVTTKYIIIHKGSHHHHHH
Kind of test: SDS-PAGE time course of the reaction in the presence of MtrA, band of the covalent conjugate.

For test [12], the target named is B2. Kind of test: microscale thermophoresis (MST), three measurements; table row MtrA.
Test [13] has as its target B2. The test is described as follows: microscale thermophoresis (MST); table row (5)KDPGA(10).
Test [14] addresses B2. Kind of test: microscale thermophoresis (MST); table row (15)KDPGA(10).
In test [15] the target is B6. The test is described as follows: size-exclusion chromatography with light scattering (SEC-MALS) of the 1:1 molar mixture. A general note: Size exclusion chromatography separates by hydrodynamic size, large species first.

T1 sequence (P02769 25-607 limits assumed): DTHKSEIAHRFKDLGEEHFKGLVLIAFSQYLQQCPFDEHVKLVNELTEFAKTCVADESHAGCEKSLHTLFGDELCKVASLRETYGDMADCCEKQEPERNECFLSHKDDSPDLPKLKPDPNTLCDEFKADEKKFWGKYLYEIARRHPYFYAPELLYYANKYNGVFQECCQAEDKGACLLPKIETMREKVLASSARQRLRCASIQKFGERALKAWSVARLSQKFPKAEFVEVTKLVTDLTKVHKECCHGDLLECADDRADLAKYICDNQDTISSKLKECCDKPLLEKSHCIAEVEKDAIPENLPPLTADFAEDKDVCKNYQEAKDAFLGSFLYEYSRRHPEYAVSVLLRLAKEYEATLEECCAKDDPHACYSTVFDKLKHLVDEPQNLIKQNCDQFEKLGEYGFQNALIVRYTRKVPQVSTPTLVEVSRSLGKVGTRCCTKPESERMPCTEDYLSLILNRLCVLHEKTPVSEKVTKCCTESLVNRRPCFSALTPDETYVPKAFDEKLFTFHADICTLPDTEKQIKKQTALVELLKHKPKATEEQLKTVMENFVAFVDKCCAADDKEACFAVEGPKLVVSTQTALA

B1: M. mazei Adriase with C-terminal His-tag (enzyme)
chain: TLVIAFIGKNGAVMAGDMREITFEGEKPDREKLEKELYSGSIVTDEEMQKKAEEFGVKITVADCKEKVSERNGVLVGEVSSAEGGVVKKRRLYASAGNFAIAELINTEMTLTSQGKGSNFIAFGNEFTKQVANKCFKDNWTKKSNLQDAVKILILCMETVARKTASVSKQFMIVQTASNADVLKVVEKDRNCGSHHHHHH
notes: Active form without start-methionine; also called M. mazei Adriase-His6; MM_2909
Take B1: the binding result is given as “no binding” in [1] and “binds” in test [2]. For B2, the EC50 (read off the curve) (as a rule, the concentration giving half of the maximal effect) in test [3] is about 0.2 µM; in test [4], about 0.6 µM; in test [5], about 0.1 µM; in test [6] it was about 0.08 µM; in test [7] it was about 0.2 µM; in test [8] it was about 0.4 µM. For the molecule B3, binding in test [9] was put at a Kd of 0.168 µM. As to B4, binding in [10] was put at a Kd of 0.363 µM.

B5: M. jannaschii Ub-KDPGA(10) (other)
chain: MHHHHHHGSMKIKIVPAVGGGSPLELEVAPNATVGAVRTKVCAMKKLPPDTTRLTYKGRALKDTETLESLGVADGDKFVLITRTVGGCGEKDPGAIDEDPFIIEL
notes: also called Ubiquitin fused to KDPGA(10)
As to B5, the binding result in [11] is on record as “binds”. As for B6, the Kd (in general, a measure of binding affinity in units of concentration) in [12] amounted to 0.129 µM. On to B7, for which the affinity in [13], expressed as Kd, was 0.121 µM. B8 had a Kd in [14] of 0.074 µM.

B9: M. jannaschii Adriase without NTN, with C-terminal His-tag (enzyme)
chain: MEQLRKQLIDFGKVMSIVNKIVKNGEIGVIKDGKLHLYDDYIAIDKIDPNPKVFKVVDVEGNFKDGDIVVIENGDMKIKGTNEKVTTKYIIIHKGSHHHHHH
notes: also called Adriase^ΔNTN
With B9, in test [15], the binding result is listed as “no binding”.

The values are drawn from patent US20260275319A1 (MAX PLANCK GESELLSCHAFT ZUR F RDERUNG DER WISSENSCHAFTEN E V, published 2026).
